Tested on: TGFβ1 C4S Small Latent Complex (SLC)
Sequence (chain, as listed by the source): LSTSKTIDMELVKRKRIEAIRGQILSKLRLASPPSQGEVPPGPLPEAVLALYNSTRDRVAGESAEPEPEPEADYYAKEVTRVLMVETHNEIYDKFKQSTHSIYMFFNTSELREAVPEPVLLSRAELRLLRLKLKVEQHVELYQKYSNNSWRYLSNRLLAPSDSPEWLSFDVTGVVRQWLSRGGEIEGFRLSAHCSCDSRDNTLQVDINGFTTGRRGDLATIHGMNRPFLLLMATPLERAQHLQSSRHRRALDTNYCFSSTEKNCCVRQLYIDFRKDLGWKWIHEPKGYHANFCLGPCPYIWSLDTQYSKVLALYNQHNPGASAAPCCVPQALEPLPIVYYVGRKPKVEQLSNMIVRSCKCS

Substance: kallikrein
- kallikrein digestion of LAP (gel): LAP can be cleaved by kallikrein into a R^58 LAP-D fragment and a L^59 LAP-D fragment

From US20260250370
